Source: US20100317830A1, “BACE455, AN ALTERNATIVE SPLICE VARIANT OF THE HUMAN BETA-SECRETASE” (EXONHIT THERAPEUTICS SA, priority 2003, published 2010)

Legend:
[1] = tested on: endogenously expressed APP in SH-SY5Y cells; test: Aβ1-40 double antibody sandwich ELISA on conditioned medium of transfected SH-SY5Y cells; format: cell-based, human; conditions: SH-SY5Y cells transfected with BACE construct; control = empty vector, set as 100%
Experimental: Cells were harvested 3 days after plating and processed for Western Blotting experiments as described above.
Cell culture supernatants harvested 72 hours after plating were analyzed in a standard double antibody isoform-specific Aβ1-40 ELISA (BioSource International) as follows. […] The detecting antibody is specific for Abeta 1-40 and the conjugated secondary antibody is an anti-rabbit IgG conjugated to horseradish peroxydase. Synthetic human Aβ1-40 standard peptides are serially diluted in the supplied sample diluent for the generation of standard curves.
Human Abeta 1-40 standards were added after washing the plate, as well as 100 μl/well of sample, e.g., conditioned medium of transfected cells. The plate was incubated at 4[deg.] C. overnight. The next day, after washing the plate four times, 100 μl/well rabbit detection antibody was added and incubated for 2 hours on an orbital plate shaker at 20 degree C. […] 100 μl/well stop solution was added and absorbance of each well was read at 450 nm within two hours, with a solution of 100 μl each of chromogen and stop solution as the blank. […] The samples with absorbance values falling within the standard curve were extrapolated (by comparison to the values obtained for the A-β40 and A-β42 standard peptides analyzed on the same plate) from the standard curves and expressed in pg/ml culture medium.

[2] = tested on: endogenously expressed APP isoforms in SH-SY5Y cells; test: Western blot of C99 fragment generation in transfected SH-SY5Y cells; format: cell-based, human
Experimental: SH-SY5Y cells for transfection were grown to 80% confluence in Dulbecco's modified Eagle's medium (DMEM) with 10% fetal bovine serum. Transfections were performed using LipofectAmine Plus (Gibco-BRL) with […] per 10*10<6>cells. Three days posttransfection, cells were passaged into medium containing G418 at a concentration of 400 μg/ml. After twenty days growth in selective medium, individual clones were selected and plated into each well of one 96 well plate containing growth medium plus G418. Clones were expanded from the 96 well plate to a 24 well plate and then to a 6 well plate. Clones which had lost initial neuronal-like morphology were not amplified. BACE455 or BACE501 expression in selected clones was assayed by Western Blotting and immunohistochemical analysis using Cterminal-specific antibody.
Cells were harvested 3 days after plating. Cells were washed twice with PBS and lysed in 1 ml CellLytic solution (Sigma) plus protease inhibitors cocktail (Roche Diagnostics) for 15 min. […] Following electrotransfer of the separated polypeptides to PVDF membranes, APP and C99 proteolytic fragment were detected with C-terminal-specific rabbit anti-APP antibody (Serotec, UK) at 1/500 in PBS-Tween 20 0.1%, and the antibody-antigen complexes were visualized using alkaline phosphatase conjugated goat anti-rabbit antibodies (1/5000). […]

B1: BACE455: new isoform of human beta-secretase (BACE) lacking exon 4, 455 amino acid residues, SEQ ID NO: 2 (protein, listed as Homo sapiens)
chain: MAQALPWLLLWMGAGVLPAHGTQHGIRLPLRSGLGGAPLGLRLPRETDEEPEEPGRRGSFVEMVDNLRGKSGQGYYVEMTVGSPPQTLNILVDTGSSNFAVGAAPHPFLHRYYQRQLSSTYRDLRKGVYVPYTQGKWEGELGTDLVSIPHGPNVTVRANIAAITESDKFFINGSNWEGILGLAYAEIARIIGGIDHSLYTGSLWYTPIRREWYYEVIIVRVEINGQDLKMDCKEYNYDKSIVDSGTTNLRLPKKVFEAAVKSIKAASSTEKFPDGFWLGEQLVCWQAGTTPWNIFPVISLYLMGEVTNQSFRITILPQQYLRPVEDVATSQDDCYKFAISQSSTGTVMGAVIMEGFYVVFDRARKRIGFAVSACHVHDEFRTAAVEGPFVTLDMEDCGYNIPQTDESTLMTIAYVMAAICALFMLPLCLMVCQWRCLRCLRQQHDDFADDISLLK
Which results are given for B1?
Aβ release (% of control) [1]: 199.95+18 % of control; C99 production ([2]; SH-SY5Y cells transformed with the BACE455 construct vs empty vector): strongly increased; APP levels ([2]; overexpression of BACE455 in SH-SY5Y cells): no influence

B2: BACE501: native full-length human BACE isoform (variant a), NM_012104 (protein, UniProt P56817 1-501, looked up)
chain: MAQALPWLLLWMGAGVLPAHGTQHGIRLPLRSGLGGAPLGLRLPRETDEEPEEPGRRGSFVEMVDNLRGKSGQGYYVEMTVGSPPQTLNILVDTGSSNFAVGAAPHPFLHRYYQRQLSSTYRDLRKGVYVPYTQGKWEGELGTDLVSIPHGPNVTVRANIAAITESDKFFINGSNWEGILGLAYAEIARPDDSLEPFFDSLVKQTHVPNLFSLQLCGAGFPLNQSEVLASVGGSMIIGGIDHSLYTGSLWYTPIRREWYYEVIIVRVEINGQDLKMDCKEYNYDKSIVDSGTTNLRLPKKVFEAAVKSIKAASSTEKFPDGFWLGEQLVCWQAGTTPWNIFPVISLYLMGEVTNQSFRITILPQQYLRPVEDVATSQDDCYKFAISQSSTGTVMGAVIMEGFYVVFDRARKRIGFAVSACHVHDEFRTAAVEGPFVTLDMEDCGYNIPQTDESTLMTIAYVMAAICALFMLPLCLMVCQWRCLRCLRQQHDDFADDISLLK
modifications: full-length
notes: native full-length human BACE isoform (variant a), NM_012104
B2 was tested. Which “Aβ release (% of control)” value [1] did it give?
The value was 193.15 ± 2.73 % of control.
